Data reported in US20090280138A1.
Values belong to the binder of their own block, whether it stands above or below them.

Assays:
Settings in all cases: remark: other sources report otherwise
[1] = molecular target: MHC class I allele B*0702 monomer (human); assay: iTopia, multiparametric iScore
[2] = molecular target: MHC class I allele A*0201 monomer (human); assay: iTopia, multiparametric iScore
[3] = molecular target: MHC class I molecule B*0702; assay: iTopia affinity assay (ED50), peptide titration on plate-bound MHC
[4] = molecular target: MHC class I molecule A*0301; assay: as above
[5] = molecular target: MHC class I molecule A*0101; assay: iTopia iScore
[6] = molecular target: MHC class I molecule B*0702; assay: iTopia iScore
[7] = molecular target: MHC class I molecule A*0301; assay: iTopia iScore
[8] = molecular target: MHC class I molecule A*0201; assay: iTopia iScore
[9] = molecular target: MHC class I molecule HLA-A*0201 (iTopia plate-bound monomer); assay: iTopia off-rate assay, 37 C; fit R^2 0.35
[10] = molecular target: MHC class I molecule HLA-A*0301 (iTopia plate-bound monomer); assay: iTopia off-rate assay, 37 C; fit R^2 0.99
[11] = molecular target: MHC class I molecule HLA-B*0702 (iTopia plate-bound monomer); assay: iTopia off-rate assay, 37 C; fit R^2 0.09
[12] = molecular target: MHC class I allele A*0101; assay: iTopia peptide binding assay
[13] = molecular target: MHC class I allele A*0201; assay: iTopia peptide binding assay
[14] = molecular target: MHC class I allele A*0301; assay: iTopia peptide binding assay
[15] = molecular target: MHC class I allele B*0702; assay: iTopia peptide binding assay

- iScore [1]: 0.515
- iScore [2]: 1.21
B1: 5T4 9-mer peptide 9 (peptide)
peptide: RLARLALVL
modifications: here or on the partner: biotinylated, bound to streptavidin-coated plate

- EC50 [3]: 0.7 µM
- EC50 [4]: 3 µM
B2: 5T4 9 mer peptide 9 (…) (peptide)
peptide: RLARLALVL
modifications: here or on the partner: biotin (bound via biotin to streptavidin-coated plates)

- iScore [5]: 0
- iScore [6]: 0.515
- iScore [7]: 0.052
- iScore [8]: 1.21
- t½ half life [9]: 15.9 h
- t½ half life [10]: 0.3 h
- t½ half life [11]: 2 h
B3: 5T4 9-mer peptide 9 … (peptide)
peptide: RLARLALVL
modifications: here or on the partner: biotin (bound to streptavidin-coated plate)

- % of positive control peptide binding [12]: 2%
- % of positive control peptide binding [13]: 65%
- % of positive control peptide binding [14]: 48%
- % of positive control peptide binding [15]: 84%
B4: 5T4 9 mer peptide 9 … (peptide)
peptide: RLARLALVL
modifications: here or on the partner: bound via biotin to streptavidin-coated plate
